# Changes are numbered by the printed parent chain. “And” between values parts separate entries of the source, which are not always exact repeats. Equal values may be shown once.
# T1: human IL-23 (form not stated) (human, UniProt P29460 23-328)
# T1 sequence 1: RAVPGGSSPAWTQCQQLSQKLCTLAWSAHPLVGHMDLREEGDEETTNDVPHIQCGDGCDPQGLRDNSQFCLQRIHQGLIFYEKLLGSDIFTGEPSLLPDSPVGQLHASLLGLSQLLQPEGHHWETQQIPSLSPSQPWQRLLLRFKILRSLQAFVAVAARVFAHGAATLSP
# T1 sequence 2: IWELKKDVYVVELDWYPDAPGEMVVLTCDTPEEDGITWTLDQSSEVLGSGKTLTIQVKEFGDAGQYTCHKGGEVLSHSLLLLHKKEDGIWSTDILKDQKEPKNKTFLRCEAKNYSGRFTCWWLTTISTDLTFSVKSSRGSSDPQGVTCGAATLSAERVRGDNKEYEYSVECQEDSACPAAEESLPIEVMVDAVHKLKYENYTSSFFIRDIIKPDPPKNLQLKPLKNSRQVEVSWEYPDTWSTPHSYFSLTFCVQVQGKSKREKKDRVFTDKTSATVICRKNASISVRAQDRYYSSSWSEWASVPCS
# T2: non-tagged, non-linked native human IL-23p19/p40 coexpressed in SF9 cells (eBioscience CAT No. 34-8239) (human, UniProt P29460 23-328)
# T2 sequence 1: T1 sequence 1
# T2 sequence 2: T1 sequence 2
# T3: "Non-linked" human IL-23 (human p40 coexpressed in 293T cells with human p19:FLAG-tag peptide) (human, UniProt P29460 23-328)
# T3 sequence 1: T1 sequence 1
# T3 sequence 2: T1 sequence 2
# B1: mouse anti-human IL-23p19 antibody 16F7 (antibody, V domains shown)
# VH: EVQLVESGGDLVKPGGSLKLSCAASGFIFNSYGMSWVRQTPDKRLEWVATISSGGRNTYYPDSVKGRFTISRDNAKNTLYLQMSSLKSEDTAMYYCARQGGYEGYVDVWGIGTTVTVSS
# VL: DIVMTQSHRFMSTSVGDRVSITCKASQDVSSAVAWYQQKPGQSPNLLIYSASFRNTGVPDRFTGSGSGTDFTFTISGVQAEDLAVYYCQQHHSTPLTFGAGTKLELKR
# B2: mouse anti-human IL-23p19 antibody 14A3 (antibody, V domains shown)
# VH: EVILVESGGGFVKPGGSLKLSCAASGFTFSNYGMSWVRQTPDKGLEWVATISTGGRYIYYSDTVKGRFTISRDNAKSTLYLKMSSLRSEDTAVHFCARHEGDRYYGWYFDVWGAGTTVTVSS
# VL: DIVLTQSPASLAVSLGQRATISCKASQSVDYDGESYMNWYQQKPGQPPKLLIYTSSSLASGIPARFSGSGSGTNFTLNIHPVEEEDAATYCCQQGNEDLFTFGSGTKLEIKR
# B3: mouse anti-human IL-23p19 antibody 12C11 (antibody, V domains shown)
# VH: EVMLVESGGGLVKPGGSLKLSCAASGFTFSNYGMSWVRQSPERGLEWVATISTGGRYTFYSDTVKGRFTISRDNARNTLYLKMSSLISEDTAVHYCARHEGDTYYGWYFDVWGAGTTVTVSS
# VL: B2 VL with Q27H, G33V, E34D, Y36F, Y53F, T54A, A59E, T76I, C91Y
# B4: mouse anti-human IL-23p19 antibody 17G8 (antibody, V domains shown)
# VH: QAQLQQSGSELARPGASVKLSCKASGYTFTSYGIKWVKQRTGQGLEWIGEIFPRSGQTIYNENFKGKATLTADKSSSTAYMELRSLTSEDSAVYFCAANWDLDYWGQGTILTVSS
# VL: DIMMTQSPATLSVTPGDRVSLSCRASQSISDYLHWYRQKSHESPRLLIKYASQSISGIPSRFSGSGSGSDFTLSINSVEPEDVGIYYCQNGHSFPYTFGGGTKLEIKR
# B5: mouse anti-human IL-23p19 antibody 1D6 (antibody, V domains shown)
# VH: EVQLQQSGPDLVKPGASVKMSCKASGYTFTAYLIHWVKRSHGKSLDWIGYINPNDGVTSYNQKFKGKATLTVNKSSGTAYMELRSLTSEDAAVYYCTLNWDLDYWGQGTTLTVSS
# VL: B4 VL with M3V, R37Q, N76T, S77N, Y96F, G100S
# B6: mouse anti-human IL-23p19 antibody 18E1 (antibody, V domains shown)
# VH: EVQLQQSGPELVKPGASVKMSCKASGNTFTRYVMNWVKQKPGQGLEWIGYINPYNDGTNYNEKFKGKATLTSDKSSTTAYMELSSLTSEDSAVYYCVHNWDLDYWGQGTTLTVSS
# VL: B4 VL with M3V, D31H, H34Y, R37Q, I85M
# B7: mouse anti-human IL-23p19 antibody 8E9 (antibody, V domains shown)
# VH: EVQLQQSGPELVKPGASVKMSCKASGYTFTAYLIHWVKQSHGKSLEWIGYINPNNGGTNYNQKFKDKATLTVNKSSATAYMELRSLTSEDSAVFYCSSNWDLDYWGRGTTLTVSS
# VL: DIVMTQSPATLSVTPGDRVSLSCRASQSIGDYLHWYQQKLHESPRLLIKYASRSISGIPSRFSGSGSGSYFTLSINSVEAEDVGVYFCQNGHSFPFTFGSGTKLEIKR
# B8: mouse anti-human IL-23p19 antibody 20H7 (antibody, V domains shown)
# VH: B4 VH with S9G, S31N, N63K, S88F
# VL: B4 VL with I85V, Y87F
# B9: mouse anti-human IL-23p19 antibody 2C6 (antibody, V domains shown)
# VH: B6 VH with N27Y, V33L, M34I, N35H, I51V, K65R, T77S, V97T, H98S, D103N
# VL: B7 VL with G30S, H34Y, L40S, R53Q, Y70D, A80P
# B10: mouse anti-human IL-23p19 antibody 3C4 (antibody, V domains shown)
# VH: B4 VH with A2V, S9G, T41F, S55G, Q57N, I59Y, N63K, A97T, I110T
# VL: B4 VL with M3V, R37Q, P80S, I85V, Y96F, G100S, E105K
# B11: mouse anti-human IL-23p19 antibody 2G12 (antibody, V domains shown)
# VH: EVQLQQSGPELVKPGASVKMSCKASGYTFTCCILHWVKQKPGQGLEWIGYINPYNDGTKYNEKFKGKATLTSDKSSRTAYMELSSLTSEDSAVYYCARRWDEAYWGQGTLVTVSA
# VL: B4 VL with M3V, D31A, R37Q, Y96F, G100S
# B12: mouse anti-human IL-23p19 antibody 20A4 (antibody, V domains shown)
# VH: B4 VH with S9G, R40G, I59Y, N63K, A98S
# VL: B4 VL with M3V, Y32F, A51V, E79D, I85V
# B13: mouse anti-human IL-23p19 antibody 15G2 (antibody, V domains shown)
# VH: B6 VH with N27Y, R31N, V33L, N35H, T77S, V93I, Y95F, V97T, H98S
# VL: B4 VL with M3V, R37Q, T72I, S74N, I85V
# B14: mouse anti-human IL-23p19 antibody 3D7 (antibody, V domains shown)
# VH: QVQLQQSGPELVKPGASVKISCKASGYSFTSYYIHWVKQRPGQGLEWIGWIFPGSGNTKYNEKFKGKATLTADTSSTTAYMQLSSLTSEASAVYFCAREGLHYFGLYAMDYWGHGTSVTVSS
# VL: DIQMTQTTSSLSASLGDRVTISCSASQGISNYLNWFQQKPDGTVKLLIYYTSSLHSGVPSRFSGSGSGTDYSLTISNLEPEDIATYYCQQYSKLPYTFGGGTKLEIKR
# notes: also called m3D7
# B15: mouse anti-human IL-23p19 antibody 33B12 (antibody, V domains shown)
# VH: QVQLQQSGAELARPGASVKLSCKASGYTFTSYSLKWVKQRTGQGLEWIGEIHPRSGNTHYNEKFKGKATLTADKSSSTAYMDLRSLTSEDSAVYFCATNWDLGYWGQGTTITVSS
# VL: B4 VL with M3V, M4L, Y36F, R37Q, K39R, I85V, Y96F, G100S
# notes: also called m33B12
# B16: mouse anti-human IL-23p19 antibody 7G10 (antibody, V domains shown)
# VH: B11 VH with C31S, C32N, I33V, L34M, R77S, R99N, E102V
# VL: B4 VL with M3V, I85V, Y96F, G100S
# B17: mouse anti-human IL-23p19 antibody 49A10 (antibody, V domains shown)
# VH: EVQLQQSGPELVKPGASVKISCKASGYTFTDYYMNWVKQSHGKSLEWFGDINPNNGDTSYNQKFKGKATLTVDKSSSTAYMELRSLTSEDSADYYCARPHYRNWYFDVWGTGTTVIVSS
# VL: DIVLTQSPASLVVSLGQRATISCRASKSVSTSGYSFLNWYQQKPGQPPKLLIYLASNLESGVPARFSGSGSGTDFTLNIHPVEAEDATTYYCQHSRELPLTFGSGTKLEMKR
# notes: also called m49A10
# B18: mouse anti-human IL-23p19 antibody 7D7 (antibody, V domains shown)
# VH: QVQLQQSGAELAKPGASVKLSCKASGYTFTNYWMDWVKQRPGQGLEWIGYINPSSGYVEYNQKFKYKATLTADKTSSTAYMQLSSLTYDDSAVYYCARSPPYYYANTYWSFDVWGTGTTVTVSS
# VL: DIGLTQSPASLAVSLGQRATISCRASKSVSTSGYSFMHWYQQKPGQPPKLLIYLASNLESGVPARFSGSGSGTDFILNIHPVEEEDAATYYCQHSRELPLAFGAGTKLELTP
# notes: also called m7D7
# B19: mouse anti-human IL-23p19 antibody 13F11 (antibody, V domains shown)
# VH: B11 VH with Y27H, F29L, C31R, C32Y, I33L, L34M, K38Q, R77S, R99N, E102V
# VL: B4 VL with M3V, S28T, R37Q, D70H, I85V, Y96F, G100S
# notes: also called m13F11
# Biological target: T1, human IL-23 (form not stated)
# Test: cell-based or functional assay
row,Splenocyte assay IC50 (IL-17 production by mouse splenocytes),Binder
1,0.155 nM,B1
2,0.053 nM,B2
3,0.079 nM,B3
4,0.018 nM,B4
5,0.027 nM,B5
6,0.092 nM,B6
7,0.034 nM,B7
8,0.033 nM,B8
9,0.037 nM,B9
10,0.014 nM,B10
11,0.106 nM,B11
12,0.024 nM,B12
13,0.095 nM,B13

# Biological target: T2, non-tagged, non-linked native human …
# Test: cell-based or functional assay
row,"IC50 (pM), blocking of Ba/F3 cell proliferation",Binder
1,2 pM,B14
2,57 pM,B15

# Biological target: T3, "Non-linked" human IL-23 (human p40 …)
# Test: cell-based or functional assay
row,"IC50 (pM), blocking of Ba/F3 cell proliferation",Binder
1,37 pM,B14
2,141 pM,B1
3,135 pM,B2
4,57 pM,B3
5,3000 pM,B16
6,3 pM,B4
7,16 pM,B5
8,48 pM,B6
9,8 pM,B7
10,3 pM,B8
11,11 pM,B9
12,193 pM,B15
13,12 pM,B10
14,183 pM,B11
15,5 pM,B12
16,133 pM,B13

# Biological target: T4, "Elastikine" human IL-23 (single chain FLAG-tag:GLU-tag:human p40:elasti-linker:human p19, expressed in 293T … (human, UniProt P29460 23-328))
# Test: cell-based or functional assay
row,"IC50 (pM), blocking of Ba/F3 cell proliferation",Binder
1,3 pM,B14
2,22 pM and 18 pM,B16
3,4 pM and 3 pM,B15

# Biological target: T4, "Elastikine" human IL-23 (single chain …)
# Test: KinExA, solution equilibrium
# Description: The equilibrium dissociation constant (Kd) for anti human IL-23 antibodies is determined using the KinExA 3000 instrument. Sapidyne Instruments Inc., Boise Id., USA KinExA uses the principle of the Kinetic Exclusion Assay method based on measuring the concentration of uncomplexed antibody in a mixture of antibody, antigen and antibody-antigen complex. The concentration of free antibody is measured by exposing the mixture to a solid-phase immobilized antigen for a very brief period of time. In practice, this is accomplished by flowing the solution phase antigen-antibody mixture past antigen-coated particles trapped in a flow cell. Data generated by the instrument are analyzed using custom software. Equilibrium constants are calculated using a mathematical theory based on the following assumptions:
# 98 micron PMMA particles (Sapidyne, Cat No. 440198) are coated with biotinylated rhIL-23 according to Sapidyne “Protocol for coating PMMA particles with biotinylated ligands having short or nonexistent linker arms”. To make biotinylated rhIL-23, EZ-link TFP PEO-biotin (Pierce, Cat. No. 21219) is used according to manufacturer's recommendations (Pierce bulletin 0874). Experimental procedures are done according to the KinExA 3000 manual.
# KinExA experiments are performed essentially as described at Example 3 of U.S. Patent Application Publication No. 2007/0048315.
row,Kd,Binder
1,0.00084 nM,B14
2,0.0074 nM,B17
3,0.0027 nM,B18
4,0.011 nM,B19
5,0.0068 nM,B15
